Publication doi:10.1101/2021.01.28.428652

Legend:
[1] = target: MIK2^ECD-6xHIS, extracellular leucine-rich repeat domain of MALE DISCOVERER 1-… RECEPTOR-LIKE KINASE 2 (Arabidopsis thaliana) (UniProt Q8VZG8); test: SPR
[2] = target: MIK2^ECD-6xHIS, extracellular leucine-rich repeat domain of MALE DISCOVERER 1-… RECEPTOR-LIKE KINASE 2 (Arabidopsis thaliana) (UniProt Q8VZG8); test: ITC

Chain of UniProt Q8VZG8 (Q8VZG8 44-707): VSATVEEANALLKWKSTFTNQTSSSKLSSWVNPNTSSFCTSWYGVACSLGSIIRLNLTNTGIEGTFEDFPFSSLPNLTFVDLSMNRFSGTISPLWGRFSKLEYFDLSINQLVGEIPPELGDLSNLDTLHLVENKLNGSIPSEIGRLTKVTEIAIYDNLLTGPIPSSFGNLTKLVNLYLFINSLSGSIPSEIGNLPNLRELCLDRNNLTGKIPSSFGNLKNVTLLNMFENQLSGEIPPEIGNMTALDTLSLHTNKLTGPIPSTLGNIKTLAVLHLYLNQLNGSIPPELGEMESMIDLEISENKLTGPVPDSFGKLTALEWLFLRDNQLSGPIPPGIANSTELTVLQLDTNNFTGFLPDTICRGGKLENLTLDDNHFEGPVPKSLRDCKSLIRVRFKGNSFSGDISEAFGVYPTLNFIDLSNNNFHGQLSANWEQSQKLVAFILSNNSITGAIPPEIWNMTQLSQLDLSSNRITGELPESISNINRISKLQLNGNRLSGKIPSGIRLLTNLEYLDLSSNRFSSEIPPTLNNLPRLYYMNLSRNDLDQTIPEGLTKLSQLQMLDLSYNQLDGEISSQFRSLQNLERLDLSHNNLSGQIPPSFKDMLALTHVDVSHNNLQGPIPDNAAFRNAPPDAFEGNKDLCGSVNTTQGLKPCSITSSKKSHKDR

Substance	Kd [1]	Kd [2]	stoichiometry N (ligand molecule per receptor molecule) [2]
SCOOP12^SS/AA peptide	3480 µM	–	–
SCOOP12 peptide (SERINE-RICH ENDOGENOUS PEPTIDE 12)	1.78 µM	3.18 µM	1
